Among the data in article PMC6754363 are stoichiometry N values, retold here.

The assay addresses Bacillus anthracis ribonucleotide reductase subunit NrdF (Bacillus anthracis) (UniProt Q81TB4). Description: crystal structure.

On to “Bacillus anthracis ribonucleotide reductase subunit NrdF (from UniProt Q81TB4 1-322) (enzyme)”, for which the stoichiometry N (usually the number of molecules, sites or subunits per partner or assembly) was 2.
